Experimental data reported in patent US20160272683A1 (Novo Nordisk, published 2016).
Numbered stars: 1 amine (or outer) side, 2 acyl side, 3 side chain; on linkers, the order of the positions; unused ones are H or OH. Ends that are not written are not given here. * marks the point of attachment. C20 diacid = O=C(O)CCCCCCCCCCCCCCCCCCC(=O)*; C18 diacid = O=C(O)CCCCCCCCCCCCCCCCC(=O)*; γGlu = O=C(O)[C@H](CCC(=O)[*:2])N[*:1]; AEEA = NCCOCCOCC(=O)O

T1: human calcitonin receptor (human, UniProt P30988 25-474)
T1 construct: whole, on cells; Assay VII: membranes on SPA beads; also called hCT-R; hCTR
T1 sequence (looked up): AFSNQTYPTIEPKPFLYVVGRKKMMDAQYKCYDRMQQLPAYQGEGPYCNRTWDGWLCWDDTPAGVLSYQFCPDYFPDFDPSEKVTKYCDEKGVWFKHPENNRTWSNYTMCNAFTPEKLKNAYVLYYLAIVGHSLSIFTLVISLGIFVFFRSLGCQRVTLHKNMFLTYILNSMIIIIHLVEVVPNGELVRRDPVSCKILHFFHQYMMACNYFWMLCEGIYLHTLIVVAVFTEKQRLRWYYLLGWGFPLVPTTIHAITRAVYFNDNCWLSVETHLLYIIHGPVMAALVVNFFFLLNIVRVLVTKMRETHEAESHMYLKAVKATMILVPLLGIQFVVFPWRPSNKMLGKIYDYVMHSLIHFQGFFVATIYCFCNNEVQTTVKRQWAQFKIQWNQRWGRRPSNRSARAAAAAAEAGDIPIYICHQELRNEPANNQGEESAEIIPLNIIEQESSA

T2: human calcitonin receptor (human, UniProt P30988 25-474)
T2 construct: whole, on cells; also called hCT-R; hCTR
T2 sequence (looked up): T1 sequence (looked up)

T3: human amylin receptor (amylin 3(a) receptor: human calcitonin receptor with RAMP-3) (human, UniProt P30988 25-474; O60896 24-148, limits assumed)
T3 construct: whole, on cells; Assay V: membranes of the Amylin 3(a)/CRE-luc BHK cells on SPA beads; also called hAmylin-R
T3 sequence (looked up) 1: T1 sequence (looked up)
T3 sequence (looked up) 2: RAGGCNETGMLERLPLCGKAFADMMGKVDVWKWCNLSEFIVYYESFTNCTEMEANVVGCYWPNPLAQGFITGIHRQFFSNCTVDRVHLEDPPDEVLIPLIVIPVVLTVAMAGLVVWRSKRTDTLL

B1: [N-terminal(C20 diacid-gGlu-OEG), des1, 30S, 31G]mimylin (peptide)
peptide: {C20 diacid-γGlu-AEEA}-ASELSTAALGRLSAELHELATLPRTETGSGSP-NH2
notes: mimylin derivative; des1 = residue 1 deleted; also called Ex. #41; 41
B2: [N-terminal(C20 diacid-gGlu), des1, 12H, 30S, 31G]mimylin (peptide)
peptide: {C20 diacid-γGlu}-ASELSTAALGHLSAELHELATLPRTETGSGSP-NH2
notes: mimylin derivative; also called Ex. #72; 72
B3: [N-terminal(C20 diacid-gGlu), des1, 9S, 21S, 23Y, 30S, 31G, 33Y]mimylin (peptide)
peptide: {C20 diacid-γGlu}-ASELSTASLGRLSAELHELSTYPRTETGSGSY-NH2
SMILES: CC(C)C[C@H](NC(=O)[C@H](CO)NC(=O)[C@H](C)NC(=O)[C@@H](NC(=O)[C@H](CO)NC(=O)[C@H](CC(C)C)NC(=O)[C@H](CCC(=O)O)NC(=O)[C@H](CO)NC(=O)[C@H](C)NC(=O)CC[C@H](NC(=O)CCCCCCCCCCCCCCCCCCC(=O)O)C(=O)O)[C@@H](C)O)C(=O)NCC(=O)N[C@@H](CCCNC(=N)N)C(=O)N[C@@H](CC(C)C)C(=O)N[C@@H](CO)C(=O)N[C@@H](C)C(=O)N[C@@H](CCC(=O)O)C(=O)N[C@@H](CC(C)C)C(=O)N[C@@H](Cc1c[nH]cn1)C(=O)N[C@@H](CCC(=O)O)C(=O)N[C@@H](CC(C)C)C(=O)N[C@@H](CO)C(=O)N[C@H](C(=O)N[C@@H](Cc1ccc(O)cc1)C(=O)N1CCC[C@H]1C(=O)N[C@@H](CCCNC(=N)N)C(=O)N[C@H](C(=O)N[C@@H](CCC(=O)O)C(=O)N[C@H](C(=O)NCC(=O)N[C@@H](CO)C(=O)NCC(=O)N[C@@H](CO)C(=O)N[C@@H](Cc1ccc(O)cc1)C(N)=O)[C@@H](C)O)[C@@H](C)O)[C@@H](C)O
notes: mimylin derivative; des1 = residue 1 deleted; also called Ex. #100; 100
B4: [N-terminal(C20 diacid-gGlu), des1, 9T, 21S, 23Y, 30S, 31G, 33Y]mimylin (peptide)
peptide: {C20 diacid-γGlu}-ASELSTATLGRLSAELHELSTYPRTETGSGSY-NH2
SMILES: CC(C)C[C@H](NC(=O)[C@H](CCCNC(=N)N)NC(=O)CNC(=O)[C@H](CC(C)C)NC(=O)[C@@H](NC(=O)[C@H](C)NC(=O)[C@@H](NC(=O)[C@H](CO)NC(=O)[C@H](CC(C)C)NC(=O)[C@H](CCC(=O)O)NC(=O)[C@H](CO)NC(=O)[C@H](C)NC(=O)CC[C@H](NC(=O)CCCCCCCCCCCCCCCCCCC(=O)O)C(=O)O)[C@@H](C)O)[C@@H](C)O)C(=O)N[C@@H](CO)C(=O)N[C@@H](C)C(=O)N[C@@H](CCC(=O)O)C(=O)N[C@@H](CC(C)C)C(=O)N[C@@H](Cc1c[nH]cn1)C(=O)N[C@@H](CCC(=O)O)C(=O)N[C@@H](CC(C)C)C(=O)N[C@@H](CO)C(=O)N[C@H](C(=O)N[C@@H](Cc1ccc(O)cc1)C(=O)N1CCC[C@H]1C(=O)N[C@@H](CCCNC(=N)N)C(=O)N[C@H](C(=O)N[C@@H](CCC(=O)O)C(=O)N[C@H](C(=O)NCC(=O)N[C@@H](CO)C(=O)NCC(=O)N[C@@H](CO)C(=O)N[C@@H](Cc1ccc(O)cc1)C(N)=O)[C@@H](C)O)[C@@H](C)O)[C@@H](C)O
notes: mimylin derivative; des1 = residue 1 deleted; also called Ex. #99; 99
B5: [N-terminal(C20 diacid-gGlu), 2L, 4G, 8L, 9V, 15Q, 21Q, 23Y, 27G, 30S, 31G, 32T, 33Y]mimylin (peptide)
peptide: {C20 diacid-γGlu}-ELSGLSTLVLGRLSQELHELQTYPRTGTGSGTY-NH2
SMILES: CC(C)C[C@H](NC(=O)CNC(=O)[C@H](CO)NC(=O)[C@H](CC(C)C)NC(=O)[C@H](CCC(=O)O)NC(=O)CC[C@H](NC(=O)CCCCCCCCCCCCCCCCCCC(=O)O)C(=O)O)C(=O)N[C@@H](CO)C(=O)N[C@H](C(=O)N[C@@H](CC(C)C)C(=O)N[C@H](C(=O)N[C@@H](CC(C)C)C(=O)NCC(=O)N[C@@H](CCCNC(=N)N)C(=O)N[C@@H](CC(C)C)C(=O)N[C@@H](CO)C(=O)N[C@@H](CCC(N)=O)C(=O)N[C@@H](CCC(=O)O)C(=O)N[C@@H](CC(C)C)C(=O)N[C@@H](Cc1c[nH]cn1)C(=O)N[C@@H](CCC(=O)O)C(=O)N[C@@H](CC(C)C)C(=O)N[C@@H](CCC(N)=O)C(=O)N[C@H](C(=O)N[C@@H](Cc1ccc(O)cc1)C(=O)N1CCC[C@H]1C(=O)N[C@@H](CCCNC(=N)N)C(=O)N[C@H](C(=O)NCC(=O)N[C@H](C(=O)NCC(=O)N[C@@H](CO)C(=O)NCC(=O)N[C@H](C(=O)N[C@@H](Cc1ccc(O)cc1)C(N)=O)[C@@H](C)O)[C@@H](C)O)[C@@H](C)O)[C@@H](C)O)C(C)C)[C@@H](C)O
B6: [N-terminal(C20 diacid-gGlu), des1, 4Q, 9V, 15Q, 16R, 19R, 21Q, 23Y, 27Q, 30S, 31Q, 32T, 33Y]mimylin (peptide)
peptide: {C20 diacid-γGlu}-ASQLSTAVLGRLSQRLHRLQTYPRTQTGSQTY-NH2
SMILES: CC(C)C[C@H](NC(=O)[C@H](CCCNC(=N)N)NC(=O)CNC(=O)[C@H](CC(C)C)NC(=O)[C@@H](NC(=O)[C@H](C)NC(=O)[C@@H](NC(=O)[C@H](CO)NC(=O)[C@H](CC(C)C)NC(=O)[C@H](CCC(N)=O)NC(=O)[C@H](CO)NC(=O)[C@H](C)NC(=O)CC[C@H](NC(=O)CCCCCCCCCCCCCCCCCCC(=O)O)C(=O)O)[C@@H](C)O)C(C)C)C(=O)N[C@@H](CO)C(=O)N[C@@H](CCC(N)=O)C(=O)N[C@@H](CCCNC(=N)N)C(=O)N[C@@H](CC(C)C)C(=O)N[C@@H](Cc1c[nH]cn1)C(=O)N[C@@H](CCCNC(=N)N)C(=O)N[C@@H](CC(C)C)C(=O)N[C@@H](CCC(N)=O)C(=O)N[C@H](C(=O)N[C@@H](Cc1ccc(O)cc1)C(=O)N1CCC[C@H]1C(=O)N[C@@H](CCCNC(=N)N)C(=O)N[C@H](C(=O)N[C@@H](CCC(N)=O)C(=O)N[C@H](C(=O)NCC(=O)N[C@@H](CO)C(=O)N[C@@H](CCC(N)=O)C(=O)N[C@H](C(=O)N[C@@H](Cc1ccc(O)cc1)C(N)=O)[C@@H](C)O)[C@@H](C)O)[C@@H](C)O)[C@@H](C)O
notes: also called Ex. #132
B7: [N-terminal(C20 diacid-gGlu), des1, 2L, 4Q, 8L, 9V, 15Q, 16R, 19R, 21Q, 23Y, 27Q, 30S, 31Q, 32T, 33Y]mimylin (peptide)
peptide: {C20 diacid-γGlu}-LSQLSTLVLGRLSQRLHRLQTYPRTQTGSQTY-NH2
SMILES: CC(C)C[C@H](NC(=O)CC[C@H](NC(=O)CCCCCCCCCCCCCCCCCCC(=O)O)C(=O)O)C(=O)N[C@@H](CO)C(=O)N[C@@H](CCC(N)=O)C(=O)N[C@@H](CC(C)C)C(=O)N[C@@H](CO)C(=O)N[C@H](C(=O)N[C@@H](CC(C)C)C(=O)N[C@H](C(=O)N[C@@H](CC(C)C)C(=O)NCC(=O)N[C@@H](CCCNC(=N)N)C(=O)N[C@@H](CC(C)C)C(=O)N[C@@H](CO)C(=O)N[C@@H](CCC(N)=O)C(=O)N[C@@H](CCCNC(=N)N)C(=O)N[C@@H](CC(C)C)C(=O)N[C@@H](Cc1c[nH]cn1)C(=O)N[C@@H](CCCNC(=N)N)C(=O)N[C@@H](CC(C)C)C(=O)N[C@@H](CCC(N)=O)C(=O)N[C@H](C(=O)N[C@@H](Cc1ccc(O)cc1)C(=O)N1CCC[C@H]1C(=O)N[C@@H](CCCNC(=N)N)C(=O)N[C@H](C(=O)N[C@@H](CCC(N)=O)C(=O)N[C@H](C(=O)NCC(=O)N[C@@H](CO)C(=O)N[C@@H](CCC(N)=O)C(=O)N[C@H](C(=O)N[C@@H](Cc1ccc(O)cc1)C(N)=O)[C@@H](C)O)[C@@H](C)O)[C@@H](C)O)[C@@H](C)O)C(C)C)[C@@H](C)O
notes: also called Ex. #133

molecular target: T1, human calcitonin receptor; test: SPA competition vs 125I-calcitonin, membranes with human CTR (Assay VII)
Description: The binding assay was performed using scintillation proximity assay (SPA) beads (RPNQ0001) from PerkinElmer® and cell membranes prepared from a BHK tk'ts 13 cell line was stably transfected with the human calcitonin receptor and a CRE-responsive luciferase reporter gene. Membranes were prepared in the following way; the cells were rinsed with PBS and incubated with Versene for approximately 5 min before harvesting. The cells were flushed with PBS and the cell-suspension was centrifuged for 5 min at 1000 rpm.
(§1) EDTA (pH 7.4, buffer 2). The resulting pellet was resuspended in buffer 2 and protein concentration was tested (BCA protein Assay, Pierce). The homogenate was kept cold during the whole procedure. The membranes were kept at −80° C. until use. Assay was performed in a 384 well Optiplate (PerkinElmer®) in a total volume of 40 ul. Membranes were mixed with SPA beads. Final concentration of membranes 35 ng/μL final and Final concentration of SPA beads was 0.05 mg/well. Test-compounds were dissolved in DMSO and further diluted in assay buffer (50 mM Hepes, pH 7.4, 1 mM CaCl2, 5 mM MgCl2, 0.1% OA and 0.02% Tween20). […] Samples were analyzed on TopCounter™ (Packard). The IC₅₀ was calculated using (one site binding competition analysis) GraphPad Prism5 as a measure of receptor affinity.

| IC50 [nM] | Binder |
| --- | --- |
| 0.085 | B1 |
| 0.097 | B2 |
| 0.1 | B3 |
| 0.154 | B4 |

molecular target: T2, human calcitonin receptor; test: whole-cell competition vs 125I-human calcitonin (Assay VIIa)
Method in brief: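 BHK tk'ts 13 cells stably co-expressing human calcitonin receptor and a CRE-luciferase reporter, seeded overnight at 37 °C. Bound tracer counted by scintillation after cold HBSS washes and NaOH/SDS lysis; IC₅₀ from one-site competition fit taken as receptor affinity.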

| IC50 [nM] | Binder |
| --- | --- |
| 3.62 | B5 |
| 630 | EASELSTAALGRLSAELHELATLPRTETGPESP-OH (also called Ex. #135) [[C-terminal(-)]mimylin] |
| 1.55 | B6 |
| 9.66 | B7 |
| 42.4 | {C18 diacid}-EASELSTAALGRLSAELHELATLPRTETGPESP-OH [[N-terminal(C18 diacid), C-terminal(-)]mimylin] |

molecular target: T3, human amylin receptor (amylin 3(a) …); test: SPA competition vs 125I-rat amylin, membranes with human CTR + RAMP-3 (Assay V)
Description: as §1, with “The binding assay was performed using scintillation proximity assay (SPA) beads (RPNQ0001) from PerkinElmer and cell membranes from the Amylin 3(a)/CRE-luc cells (as described in Assay (II)) were used. Membranes were prepared in the following way; the cells were rinsed with PBS and incubated with Versene for approximately 5 min before harvesting. The cells were flushed with PBS and the cell-suspension was centrifuged for 5 min at 1000 rpm. […] The” for “EDTA (pH 7.4, buffer 2). The”, “use. The assay” for “use. Assay”, “Optiplate (PerkinElmer)” for “Optiplate (PerkinElmer®)”, “and” for “and Final concentration of”

| IC50 [nM] | Binder |
| --- | --- |
| 0.141 | B1 |
| 0.565 | B2 |
| 0.171 | B3 |
| 0.159 | B4 |
